According to patent US20050053985A1:

Molecular target: 3′-end processing factors
Assay: immunoprecipitation under standard salt conditions

tRNA endonuclease
percent of the 3′-end processing factors associated: < 1%
